Here are results for one molecule from patent US20070184523A1 (Genentech, published 2007).

Experiment [1] concerns the target T1, CH3 Y407A cavity mutant (human, UniProt P01857-1 224-330 = IgG part, Y407A).
T1 construct: domain: CH3; Isolated CH3 domain secreted from E. coli; Positions follow Eu numbering; also called designed cavity mutant
Description: calorimetry of a mixture of purified CH3 domains.

The target in experiment [2] is T2, CH3 T366S:L368A:Y407V cavity mutant (human, UniProt P01857-1 224-330 = IgG part, T366S; L368A; Y407V).
T2 construct: domain: CH3; Isolated CH3 domain secreted from E. coli; Positions follow Eu numbering; also called phage-selected cavity mutant
Description: calorimetry of a 1:1 mixture of purified CH3 domains.

B1: CH3 T366W protuberance mutant (other, human, UniProt P01857-1 224-330, looked up, name in EU numbering)
chain: GQPREPQVYTLPPSRDELTKNQVSLWCLVKGFYPSDIAVEWESNGQPENNYKTTPPVLDSDGSFFLYSKLTVDKSRWQQGNVFSCSVMHEALHNHYTQKSLSLSPGK
notes: domain: CH3; Isolated CH3 domain secreted from E. coli (plasmid pAK19); Positions follow Eu numbering, not the UniProt entry
Consider B1, for which the binding result in experiment [1] and in experiment [2] was “binds” in each case.
